# Tests used:
# LXRb:RXRa = LXRb:RXRa (Homo sapiens, UniProt P55055;P19793 full;full); assay: no ligand; PBM; 270 nM : 90 nM RXRa; PBS pH 7.4, 2% milk, 0.02% Triton X-100, 1 mM DTT, BSA, 0.4 mg/ml salmon testes DNA; conditions: tags: His kept;His cleaved; copies: 1;1; label: surface-attached array probe
# Outline: (§1)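 Ligand-free nuclear receptor dimers were applied to custom Agilent 4×180K protein-binding microarrays whose double-stranded probes carried direct-repeat seeds, single-nucleotide variants, half-site ablations and random human genomic background sequences in 34-nt variable regions. Incubation lasted 1 h. Binding z-scores were computed against the random background probes from regression-normalized fluorescence.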
# VDR:RXRa = VDR:RXRa (Homo sapiens, UniProt P11473;P19793 full;full); assay: as above; conditions: tags: His kept;His cleaved; copies: 1;1; label: surface-attached array probe
# Outline: as §1
# RXRa = RXRa (Homo sapiens, UniProt P19793); assay: no ligand; PBM; 180 nM; PBS pH 7.4, 2% milk, 0.02% Triton X-100, 1 mM DTT, BSA, 0.4 mg/ml salmon testes DNA; conditions: tags: His cleaved; chain copies: 2; label: surface-attached array probe
# LXRa:RXRa = LXRa:RXRa (Homo sapiens, UniProt Q13133;P19793 full;full); assay: no ligand; PBM; 270 nM : 90 nM RXRa; PBS pH 7.4, 2% milk, 0.02% Triton X-100, 1 mM DTT, BSA, 0.4 mg/ml salmon testes DNA; conditions: tags: His kept;His cleaved; copies: 1;1; label: surface-attached array probe
# Outline: as §1
# RARb:RXRa = RARb:RXRa (Homo sapiens, UniProt P10826;P19793 full;full); assay: as above; conditions: tags: His kept;His cleaved; copies: 1;1; label: surface-attached array probe
# Outline: as §1
# PPARa:RXRa = PPARa:RXRa (Homo sapiens, UniProt Q07869;P19793 full;full); assay: as above; conditions: tags: GST kept;His cleaved; copies: 1;1; label: surface-attached array probe
# Outline: as §1
# FXR:RXRa = FXR:RXRa (Homo sapiens, UniProt Q96RI1;P19793 full;full); assay: as above; conditions: tags: His kept;His cleaved; copies: 1;1; label: surface-attached array probe
# Outline: as §1
# RARg:RXRa = RARg:RXRa (Homo sapiens, UniProt P13631;P19793 full;full); assay: as above; conditions: tags: His kept;His cleaved; copies: 1;1; label: surface-attached array probe
# Outline: as §1
# Sequence of RARb:RXRa (P10826 whole entry, chain 1 of 2): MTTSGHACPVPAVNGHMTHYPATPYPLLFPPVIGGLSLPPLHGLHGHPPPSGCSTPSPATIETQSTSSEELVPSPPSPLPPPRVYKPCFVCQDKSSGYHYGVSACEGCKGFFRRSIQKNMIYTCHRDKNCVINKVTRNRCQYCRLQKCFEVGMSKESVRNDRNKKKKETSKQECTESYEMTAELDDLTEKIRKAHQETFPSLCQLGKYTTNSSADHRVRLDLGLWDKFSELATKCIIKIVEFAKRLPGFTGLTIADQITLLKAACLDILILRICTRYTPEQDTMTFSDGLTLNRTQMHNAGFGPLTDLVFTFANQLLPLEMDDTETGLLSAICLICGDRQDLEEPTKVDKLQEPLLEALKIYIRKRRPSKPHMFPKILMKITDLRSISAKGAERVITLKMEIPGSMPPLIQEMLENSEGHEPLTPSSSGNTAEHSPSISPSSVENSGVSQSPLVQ
# Sequence of RARb:RXRa (P19793 whole entry, chain 2 of 2): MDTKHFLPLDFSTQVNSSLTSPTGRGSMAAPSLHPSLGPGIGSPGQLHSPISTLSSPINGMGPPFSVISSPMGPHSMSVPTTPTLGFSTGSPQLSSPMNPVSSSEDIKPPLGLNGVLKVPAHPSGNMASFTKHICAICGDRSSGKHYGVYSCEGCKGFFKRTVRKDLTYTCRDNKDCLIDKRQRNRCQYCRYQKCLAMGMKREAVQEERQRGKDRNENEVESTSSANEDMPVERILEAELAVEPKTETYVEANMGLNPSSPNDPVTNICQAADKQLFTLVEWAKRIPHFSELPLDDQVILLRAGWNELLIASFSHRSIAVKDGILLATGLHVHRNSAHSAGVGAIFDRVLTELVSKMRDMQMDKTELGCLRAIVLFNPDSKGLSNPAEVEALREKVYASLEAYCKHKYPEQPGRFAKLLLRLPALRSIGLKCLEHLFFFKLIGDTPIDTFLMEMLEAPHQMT
# Sequence of RARg:RXRa (P13631 whole entry, chain 1 of 2): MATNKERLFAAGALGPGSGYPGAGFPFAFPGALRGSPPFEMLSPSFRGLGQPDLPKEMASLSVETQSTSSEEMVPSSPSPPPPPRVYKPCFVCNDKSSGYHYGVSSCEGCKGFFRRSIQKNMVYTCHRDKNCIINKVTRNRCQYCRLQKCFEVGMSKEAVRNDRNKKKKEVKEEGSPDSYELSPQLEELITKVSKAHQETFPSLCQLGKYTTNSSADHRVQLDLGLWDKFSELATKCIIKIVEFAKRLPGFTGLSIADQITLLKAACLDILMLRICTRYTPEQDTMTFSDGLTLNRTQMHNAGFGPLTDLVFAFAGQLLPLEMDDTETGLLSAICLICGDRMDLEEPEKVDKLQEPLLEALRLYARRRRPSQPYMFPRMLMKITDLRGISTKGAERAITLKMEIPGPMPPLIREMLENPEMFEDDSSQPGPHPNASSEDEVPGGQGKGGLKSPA
# Sequence of RARg:RXRa (P19793 whole entry, chain 2 of 2): as the sequence (P19793 whole entry, chain 2 of 2) above
# Sequence of LXRb:RXRa (P55055 whole entry, chain 1 of 2): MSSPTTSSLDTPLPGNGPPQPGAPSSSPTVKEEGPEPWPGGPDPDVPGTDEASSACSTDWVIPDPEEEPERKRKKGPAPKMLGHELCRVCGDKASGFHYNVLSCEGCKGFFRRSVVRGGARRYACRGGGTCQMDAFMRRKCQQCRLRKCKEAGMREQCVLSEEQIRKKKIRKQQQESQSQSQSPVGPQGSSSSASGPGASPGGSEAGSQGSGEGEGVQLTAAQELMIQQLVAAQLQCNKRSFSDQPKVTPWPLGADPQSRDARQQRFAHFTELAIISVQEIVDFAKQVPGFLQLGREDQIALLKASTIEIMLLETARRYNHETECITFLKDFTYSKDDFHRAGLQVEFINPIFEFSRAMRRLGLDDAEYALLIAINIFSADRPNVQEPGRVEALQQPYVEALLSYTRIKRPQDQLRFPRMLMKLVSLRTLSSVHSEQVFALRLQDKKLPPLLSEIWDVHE
# Sequence of LXRb:RXRa (P19793 whole entry, chain 2 of 2): as the sequence (P19793 whole entry, chain 2 of 2) above
# Sequence of VDR:RXRa (P11473 whole entry, chain 1 of 2): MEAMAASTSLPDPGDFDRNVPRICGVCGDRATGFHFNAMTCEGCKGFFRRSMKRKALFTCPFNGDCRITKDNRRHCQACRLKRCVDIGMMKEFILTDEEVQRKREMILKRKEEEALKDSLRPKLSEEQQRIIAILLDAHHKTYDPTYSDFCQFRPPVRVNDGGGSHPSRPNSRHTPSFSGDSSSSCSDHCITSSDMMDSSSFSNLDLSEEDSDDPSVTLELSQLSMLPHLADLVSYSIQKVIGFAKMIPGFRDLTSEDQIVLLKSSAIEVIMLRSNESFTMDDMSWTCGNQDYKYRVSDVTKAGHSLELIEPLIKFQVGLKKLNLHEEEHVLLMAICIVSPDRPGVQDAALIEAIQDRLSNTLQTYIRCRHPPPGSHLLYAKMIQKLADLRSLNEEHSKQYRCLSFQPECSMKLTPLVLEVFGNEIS
# Sequence of VDR:RXRa (P19793 whole entry, chain 2 of 2): as the sequence (P19793 whole entry, chain 2 of 2) above
# Sequence of RXRa (P19793 whole entry): as the sequence (P19793 whole entry, chain 2 of 2) above
# Sequence of PPARa:RXRa (Q07869 whole entry, chain 1 of 2): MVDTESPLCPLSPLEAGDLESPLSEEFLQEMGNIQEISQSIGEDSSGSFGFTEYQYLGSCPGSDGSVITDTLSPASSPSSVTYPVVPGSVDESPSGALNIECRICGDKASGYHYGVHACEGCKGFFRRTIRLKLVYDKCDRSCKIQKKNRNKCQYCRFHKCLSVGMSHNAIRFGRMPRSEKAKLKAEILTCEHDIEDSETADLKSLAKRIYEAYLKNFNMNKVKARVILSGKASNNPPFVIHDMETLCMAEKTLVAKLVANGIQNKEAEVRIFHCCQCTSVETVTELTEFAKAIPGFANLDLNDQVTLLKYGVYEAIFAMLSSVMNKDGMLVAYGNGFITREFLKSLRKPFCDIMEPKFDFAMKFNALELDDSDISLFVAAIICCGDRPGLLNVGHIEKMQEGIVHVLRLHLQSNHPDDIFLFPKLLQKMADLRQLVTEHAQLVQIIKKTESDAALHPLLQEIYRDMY
# Sequence of PPARa:RXRa (P19793 whole entry, chain 2 of 2): as the sequence (P19793 whole entry, chain 2 of 2) above
# Sequence of LXRa:RXRa (Q13133 whole entry, chain 1 of 2): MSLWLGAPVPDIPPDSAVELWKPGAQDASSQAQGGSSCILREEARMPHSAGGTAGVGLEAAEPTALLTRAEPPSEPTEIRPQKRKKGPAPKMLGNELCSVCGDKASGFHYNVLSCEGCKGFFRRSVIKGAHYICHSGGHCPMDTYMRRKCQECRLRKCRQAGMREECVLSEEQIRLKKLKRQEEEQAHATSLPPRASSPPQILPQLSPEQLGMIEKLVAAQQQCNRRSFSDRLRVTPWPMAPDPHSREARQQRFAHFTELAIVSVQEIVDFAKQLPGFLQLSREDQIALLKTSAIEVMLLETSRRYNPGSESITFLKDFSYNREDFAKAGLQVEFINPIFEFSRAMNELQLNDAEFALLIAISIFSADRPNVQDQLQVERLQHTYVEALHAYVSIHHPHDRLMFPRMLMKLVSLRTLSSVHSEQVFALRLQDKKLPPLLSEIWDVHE
# Sequence of LXRa:RXRa (P19793 whole entry, chain 2 of 2): as the sequence (P19793 whole entry, chain 2 of 2) above
# Sequence of FXR:RXRa (Q96RI1 whole entry, chain 1 of 2): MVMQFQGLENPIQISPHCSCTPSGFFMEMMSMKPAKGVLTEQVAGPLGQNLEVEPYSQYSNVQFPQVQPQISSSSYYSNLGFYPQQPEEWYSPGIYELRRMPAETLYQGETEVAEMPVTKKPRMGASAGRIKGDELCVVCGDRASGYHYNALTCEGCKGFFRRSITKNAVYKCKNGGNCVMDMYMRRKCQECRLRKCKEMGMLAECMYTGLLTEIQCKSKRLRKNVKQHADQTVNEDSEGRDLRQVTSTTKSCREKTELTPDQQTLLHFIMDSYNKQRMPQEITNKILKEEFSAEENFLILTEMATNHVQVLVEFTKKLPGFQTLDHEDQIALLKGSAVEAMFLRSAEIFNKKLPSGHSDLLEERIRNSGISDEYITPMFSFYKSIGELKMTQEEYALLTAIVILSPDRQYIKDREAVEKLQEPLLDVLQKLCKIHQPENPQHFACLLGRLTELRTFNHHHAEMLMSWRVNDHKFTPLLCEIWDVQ
# Sequence of FXR:RXRa (P19793 whole entry, chain 2 of 2): as the sequence (P19793 whole entry, chain 2 of 2) above
Binder,binding signal (LXRb:RXRa),binding signal (VDR:RXRa),other results
NRC3_wobSeed100_DR4_T22G_o1 (dsDNA) DNA 1: GCCCTACTGGGCCACGAAAGGGCATTGATTCAGTGAGCGATTGACAGCGTAGAATGAAGG DNA 2: CCTTCATTCTACGCTGTCAATCGCTCACTGAATCAATGCCCTTTCGTGGCCCAGTAGGGC,0.15 PBM z-score against 500 random probes,0.11 PBM z-score against 500 random probes,–
NRC3_random_hg19_480_o1 (dsDNA) DNA 1: GCGAGAATGGTCAGTACATTCAACCATGAATTCAAGGCGATTGACAGCGTAGAATGAAGG DNA 2: CCTTCATTCTACGCTGTCAATCGCCTTGAATTCATGGTTGAATGTACTGACCATTCTCGC,-0.32 PBM z-score against 500 random probes,0.03 PBM z-score against 500 random probes,–
NRC3_wobSeed27_DR1_G24A_o1 (dsDNA) DNA 1: GCACTCGGAGGACAAAGGTCAGAACTACGCCAGTGAGCGATTGACAGCGTAGAATGAAGG DNA 2: CCTTCATTCTACGCTGTCAATCGCTCACTGGCGTAGTTCTGACCTTTGTCCTCCGAGTGC,3.26 PBM z-score against 500 random probes,3.2 PBM z-score against 500 random probes,–
NRC3_wobSeed130_DR5_T12G_o1 (dsDNA) DNA 1: GCCTCGAAAGGGCGTGCTCAGGTGAGTATACCAAACGCGATTGACAGCGTAGAATGAAGG DNA 2: CCTTCATTCTACGCTGTCAATCGCGTTTGGTATACTCACCTGAGCACGCCCTTTCGAGGC,0.29 PBM z-score against 500 random probes,–,binding signal (RXRa): 0.33 PBM z-score against 500 random probes
NRC3_wobSeed116_DR4_C16T_o1 (dsDNA) DNA 1: GCAGAATGAGGTTACTAAAGATCAGGGAAACGCTTGGCGATTGACAGCGTAGAATGAAGG DNA 2: CCTTCATTCTACGCTGTCAATCGCCAAGCGTTTCCCTGATCTTTAGTAACCTCATTCTGC,–,–,binding signal (LXRa:RXRa): 8.1 PBM z-score against 500 random probes
NRC3_random_hg19_263_o1 (dsDNA) DNA 1: GCGCTGGGTAGATCTGCCACTGAAGCCTACATGGAGGCGATTGACAGCGTAGAATGAAGG DNA 2: CCTTCATTCTACGCTGTCAATCGCCTCCATGTAGGCTTCAGTGGCAGATCTACCCAGCGC,-1.05 PBM z-score against 500 random probes,-0.87 PBM z-score against 500 random probes,–
NRC3_random_hg19_348_o1 (dsDNA) DNA 1: GCGGAGCAGTCTGCTTTCACGCAGCCTGCTGGGCACGCGATTGACAGCGTAGAATGAAGG DNA 2: CCTTCATTCTACGCTGTCAATCGCGTGCCCAGCAGGCTGCGTGAAAGCAGACTGCTCCGC,-1.82 PBM z-score against 500 random probes,–,binding signal (RARb:RXRa): -2.02 PBM z-score against 500 random probes
NRC3_random_hg19_43_o1 (dsDNA) DNA 1: GCAGGACCTCTTCAAGGAGAACTACAAACCACTGCTGCGATTGACAGCGTAGAATGAAGG DNA 2: CCTTCATTCTACGCTGTCAATCGCAGCAGTGGTTTGTAGTTCTCCTTGAAGAGGTCCTGC,-0.03 PBM z-score against 500 random probes,–,binding signal (RARb:RXRa): -0.5 PBM z-score against 500 random probes; binding signal (PPARa:RXRa): -0.17 PBM z-score against 500 random probes
NRC3_wobSeed10_DR0_G17T_o1 (dsDNA) DNA 1: GCATCGAAAGGTCGAGTTGAGTATAGAGAAAGGGAAGCGATTGACAGCGTAGAATGAAGG DNA 2: CCTTCATTCTACGCTGTCAATCGCTTCCCTTTCTCTATACTCAACTCGACCTTTCGATGC,3.11 PBM z-score against 500 random probes,–,binding signal (RXRa): 4.1 PBM z-score against 500 random probes
NRC3_wobSeed109_DR4_A19G_o1 (dsDNA) DNA 1: GCCGTCCAAGGTCATAGGGGGTCAGTGAAGACAGATGCGATTGACAGCGTAGAATGAAGG DNA 2: CCTTCATTCTACGCTGTCAATCGCATCTGTCTTCACTGACCCCCTATGACCTTGGACGGC,7.12 PBM z-score against 500 random probes,7.46 PBM z-score against 500 random probes,binding signal (FXR:RXRa): 8.21 PBM z-score against 500 random probes; binding signal (RARg:RXRa): 7.6 PBM z-score against 500 random probes
NRC3_wobSeed86_DR3_o1 (dsDNA) DNA 1: GCGCTGCTAGGTCAGGTTGGTCAGCTAACGGGTACGGCGATTGACAGCGTAGAATGAAGG DNA 2: CCTTCATTCTACGCTGTCAATCGCCGTACCCGTTAGCTGACCAACCTGACCTAGCAGCGC,0.46 PBM z-score against 500 random probes,0.5 PBM z-score against 500 random probes,–
NRC3_random_hg19_165_o1 (dsDNA) DNA 1: GCTGAGTCCCTGCACTAGTCGGTTTGAGCTGCTTGTGCGATTGACAGCGTAGAATGAAGG DNA 2: CCTTCATTCTACGCTGTCAATCGCACAAGCAGCTCAAACCGACTAGTGCAGGGACTCAGC,-0.66 PBM z-score against 500 random probes,–,binding signal (RXRa): -1.2 PBM z-score against 500 random probes
NRC3_wobSeed45_DR1_A14T_o1 (dsDNA) DNA 1: GCTGTCAAAGTTCTAAGGTAACGTAAGTATCCACACGCGATTGACAGCGTAGAATGAAGG DNA 2: CCTTCATTCTACGCTGTCAATCGCGTGTGGATACTTACGTTACCTTAGAACTTTGACAGC,0.4 PBM z-score against 500 random probes,–,binding signal (RXRa): 0.38 PBM z-score against 500 random probes; binding signal (RARg:RXRa): 0.41 PBM z-score against 500 random probes
NRC3_random_hg19_183_o1 (dsDNA) DNA 1: GCGAGGACAGAGTAGATCAACCTTTCCTACCTCTAAGCGATTGACAGCGTAGAATGAAGG DNA 2: CCTTCATTCTACGCTGTCAATCGCTTAGAGGTAGGAAAGGTTGATCTACTCTGTCCTCGC,-0.11 PBM z-score against 500 random probes,0.02 PBM z-score against 500 random probes,–
NRC3_wobSeed98_DR4_C23A_o1 (dsDNA) DNA 1: GCACTAGTTGGTCAGCTGAGGTAACACACAATTCGGGCGATTGACAGCGTAGAATGAAGG DNA 2: CCTTCATTCTACGCTGTCAATCGCCCGAATTGTGTGTTACCTCAGCTGACCAACTAGTGC,0.34 PBM z-score against 500 random probes,–,binding signal (RXRa): 0.48 PBM z-score against 500 random probes
NRC3_wobSeed21_DR0_C21T_o1 (dsDNA) DNA 1: GCCGTCAAAGTTCAAGGTAATGTAACAGAAAGCAGCGCGATTGACAGCGTAGAATGAAGG DNA 2: CCTTCATTCTACGCTGTCAATCGCGCTGCTTTCTGTTACATTACCTTGAACTTTGACGGC,3.22 PBM z-score against 500 random probes,3.72 PBM z-score against 500 random probes,–
NRC3_random_hg19_225_o1 (dsDNA) DNA 1: GCTGGATGAAGTGGAAGAACAAGGCTATTCTTTACTGCGATTGACAGCGTAGAATGAAGG DNA 2: CCTTCATTCTACGCTGTCAATCGCAGTAAAGAATAGCCTTGTTCTTCCACTTCATCCAGC,-0.34 PBM z-score against 500 random probes,–,binding signal (RXRa): -0.39 PBM z-score against 500 random probes; binding signal (RARg:RXRa): 0.01 PBM z-score against 500 random probes
NRC3_random_hg19_373_o1 (dsDNA) DNA 1: GCTGCCACAGAGGATACTGTGACGTTATGCATCACTGCGATTGACAGCGTAGAATGAAGG DNA 2: CCTTCATTCTACGCTGTCAATCGCAGTGATGCATAACGTCACAGTATCCTCTGTGGCAGC,-0.59 PBM z-score against 500 random probes,-0.23 PBM z-score against 500 random probes,–
NRC3_wobSeed29_DR1_T22A_o1 (dsDNA) DNA 1: GCGCTTACGGGTCAAAGGTTAAAGCATGAATAGAATGCGATTGACAGCGTAGAATGAAGG DNA 2: CCTTCATTCTACGCTGTCAATCGCATTCTATTCATGCTTTAACCTTTGACCCGTAAGCGC,6.19 PBM z-score against 500 random probes,–,binding signal (RXRa): 10 PBM z-score against 500 random probes
NRC3_random_hg19_18_o1 (dsDNA) DNA 1: GCATACACTTCTGGAGGCCAGAGGTCTGAAATCAAGGCGATTGACAGCGTAGAATGAAGG DNA 2: CCTTCATTCTACGCTGTCAATCGCCTTGATTTCAGACCTCTGGCCTCCAGAAGTGTATGC,-0.22 PBM z-score against 500 random probes,–,binding signal (RARb:RXRa): 0.42 PBM z-score against 500 random probes
NRC3_wobSeed37_DR1_T23C_o1 (dsDNA) DNA 1: GCCGTCCAAGGTCAAAGGTCAGCGAAGAGATGACGGGCGATTGACAGCGTAGAATGAAGG DNA 2: CCTTCATTCTACGCTGTCAATCGCCCGTCATCTCTTCGCTGACCTTTGACCTTGGACGGC,7.14 PBM z-score against 500 random probes,–,binding signal (RARb:RXRa): 6.23 PBM z-score against 500 random probes
NRC3_random_hg19_332_o1 (dsDNA) DNA 1: GCTTGTCCTCAGCCTCCTGAGCAGCTGGGACTATAGGCGATTGACAGCGTAGAATGAAGG DNA 2: CCTTCATTCTACGCTGTCAATCGCCTATAGTCCCAGCTGCTCAGGAGGCTGAGGACAAGC,-1.23 PBM z-score against 500 random probes,-1.03 PBM z-score against 500 random probes,binding signal (FXR:RXRa): -0.13 PBM z-score against 500 random probes
NRC3_random_hg19_83_o1 (dsDNA) DNA 1: GCGCTGTACATGATGTGGCCTCCCAGCCCAGGATCTGCGATTGACAGCGTAGAATGAAGG DNA 2: CCTTCATTCTACGCTGTCAATCGCAGATCCTGGGCTGGGAGGCCACATCATGTACAGCGC,-0.83 PBM z-score against 500 random probes,-0.48 PBM z-score against 500 random probes,binding signal (PPARa:RXRa): -0.53 PBM z-score against 500 random probes
NRC3_wobSeed97_DR4_G16A_o1 (dsDNA) DNA 1: GCCAAACTAGGTCACAAAAGGTCAAAGTCGAATGACGCGATTGACAGCGTAGAATGAAGG DNA 2: CCTTCATTCTACGCTGTCAATCGCGTCATTCGACTTTGACCTTTTGTGACCTAGTTTGGC,–,–,binding signal (LXRa:RXRa): 8.65 PBM z-score against 500 random probes
